System: RISR-RIAD peptide with myc and ddk (FLAG) tags, expressed in T cells
Sequence (chain, as listed by the source): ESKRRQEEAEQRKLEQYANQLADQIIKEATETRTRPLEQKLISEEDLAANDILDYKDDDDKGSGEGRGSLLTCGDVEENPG

Substance: Protein kinase A (PKA), RI regulatory subunit
- phosphorylation of Csk-S364 and Lck-Y505 (blot, FIG. 2): RISR-RIAD expression prevented phosphorylation of Csk-S364 and Lck-Y505

— patent publication US20200390811A1
